Assay results published in the DeepSol protein solubility set.

Test: soluble on expression in E. coli; label from the status in PepcDB or PDB records

| Sequence | soluble on expression in E. coli |
| --- | --- |
| MGSDKIHHHHHHTKKEISTQPIKVGVFDGHGGAQTCIWETVAAIRLDPEMEVRTITTADIANNALDSIDAIIIPGGSGKSQYLNLGTLNQQRIKDFIAKGKGAVGICAGAYLFSNTPDYTCIQLNGQQAIDIEHDNRGHGLAKFTLCEEGKKIFPELADRDTSFVIYYEGPVFINNPVDTIQSNTLAIMESDVHEEGNAPANMTNGKPFFVANNYGKGRVFSSIAHPEGTPGMMWMIPRMVRWTLNKPFIPYQSSAVRPDLFNHESLMATDDLKQEEKAFQILLSGESEQKVAALDWLEAHHSWDAKRWVQGLLYDASPAVRIRAARYIADTHYLPFLPNLQAAYRTETDKATQEELKTQLEKLTALLP | not soluble |
| MDPSENVFKYETAYDLLVRLGAERLFLRTCLSILDPVLELHPGKCYEIDGDLGVGKTQICYSFAAKFLQTKKTAKMGWIGATPLRTDHLLLHIEHFGNQTNEDILDRIVCKRVEKIAELQDSLTRFLDTINLQLVIVENIDAILHDTVYHKEMGRSMQSDVVERIRKLTKLEITVILTNHITHWRGYPAPALGAFWSSQINNRFFIEKRNDDSDIRIVSAMKGEQDDGMNRIEFKIGDRGLKAVE | not soluble |
| MATDTSSPKHEPIIIAVEPYGGSVRDHSPLLPLVYWDDAAVTRGDGVFETILFRHGRACNLERHAQRFRESAVLLDLPEPRLDHWVHATSMAVEKWFQQSESDAKCVWTYTRGRASTGHPSAWLTITAVPDCVIEQREQGVRVMTTPRGYHIDTSNSVPWVVIGAKTLNYASNMAALRWAKKEGFDDVIFTEQDRILEGATSTVVTFRGNKIRSPFPGGDVLPGTTQAALFDYATNLGWNCKLKDMDEVYLTEKADSVWLISSVRGATRVRRINDTKLPRPDNESEIRELIEAALTAL | not soluble |
| SNAMIRKYRYGAPFDTEALTEKIETAEEAFPYGEISQKEGFAFTYIMDEDDIVYGLGESNRGINKRGYCYISNCTDDPIHTEDKRSLYGAHNFIIVSGKTTFGLFFDYPSKLTFDIGYTRMDTLKVSCENADLDIYVIEGENAYDIVKQFRRVIGRSYIPPKFAFGFGQSRWGYTTKEDFRAVAKGYRENHIPIDMIYMDIDYMQDFKDFTVNEKNFPDFPEFVKEMKDQELRLIPIIDAGVKVEKGYEVYEEGVKNNYFCKREDGSDFVAAVWPGDTHFPDMLNPEARKWFGDKYRFLIDQGIEGFWNDMNEPAIFYSSEGLAEAKEFAGEFAKDTEGKIHPWAMQAKMKDIVNSPEDYKRFYHNVNGKKIRHDKVHNLFGYNMTRAAGEAFERIDPEKRFLMFSRSSYIGMHRYGGIWMGDNKSWWSHILLNLKMLPSLNMCGFMYTGADLGGFGDDTTRDLLLRFLALGVFTPLMRDHAAEGTREQECYQFENIEDFRSVINARYRLVPYLYSEYMKAALNDDMYFKPLGFVYPDDKMAIRVEDQLMLGNEIMIAPVYEQNARGRYVYLPEEMKFIKFMPDGSISEEVLEKGVHYVDVALNEVPLFIRSGKCIPVAEAAECVKDIDTENMQLIGYEGSSYTLYEDDGIHKDYDKKENYRVLTK | soluble |
| MSLENVDPFDIIRQFRSVIAKTSLQASSNIEGLDTVWNSDLVLEANFWHLVEILLSFRTSQEFLDKESSISSKPYNSSIIFEKELLQKDKNLYQIWLIIVWIEGNFPFVEKPSNIPSSKWTNTLVTSGLMSSDLDYPLRDCSVVINDKDKADDHVFYKYVYELLLCGNYDQIFEECKLSDNITLNMIMCGMQEYVDPSIDVQLKDEFEVQQGVKKHSLWRRAVYSLSQNDKLDKYERAIYSYLAGDIPNDEVLQTLNWDSELLVYLNQILKIEVENYLLQNGKVNNEGHHHHHH | soluble |
| EGLNICKKIMVISDKNDAISEFIIKELERGCTIIDGKGGYTGKDTYILYTVLNRKEFIRLRIFIKETDPNAFITISDAKEVLGEGFKEI | not soluble |
| SSTIGSFEGFQAVSLKQEGDDQPSETDHLSMEEEDPMPRQISRQSSVTESTLYPNPYHQPYISRKYFATRPGAIETAMEDLKGHVAETSGETIQGFWLLTKIDHWNNEKERILLVTDKTLLICKYDFIMLSCVQLQRIPLSAVYRICLGKFTFPGMSLDKRQGEGLRIYWGSPEEQSLLSRWNPWSTEVPYATFTEHPMKYTSEKFLEICKLSGFMSKLVPAIQNAHKNSTGSGRGKKLMVLTEPILIETYTGLMSFIGNRNKLGYSLARGSIGF | soluble |
| MSLGNSRSRVGRSFCSQFLPEEQAEIDQLFDALSSDKNSPNVSSKSFSLKALQNHVGEALPPEMVTRLYDGMRRVDLTGKAKGPSENVSQEQFTASMSHLLKGNSEEKSLMIMKMISATEGPVKAREVQKFTEDLVGSVVHVLSHRQELRGWTGKEAPGPNPRVQVLAAQLLSDMKLQDGKRLLGPQWLDYDCDRAVIEDWVFRVPHVAIFLSVVICKGFLVLCSSLDLTTLVPERQVDQGRGFESILDVLSVMYINAQLPREQRHRWRLLFSSVLHGHSFSQLCGHITHRGPCVAVLEDHDKHVFGGFASCSWEVKPQFQGDNRCFLFSICPSMAVYTHTGYNDHYMYLNHGQQTIPNGLGMGGQHNYFGLWVDVDFGKGHSRAKPTCTTYNSPQLSAQENFQFDKMEVWAVGDPSEEQLAKGNKSILDADPEAQALLEISGHSRHSEGLREVPDDEGHHHHHH | soluble |
| MAPPTFADLGKSAKDLFNKGYNFGFLKIDSTTRAGDNKEVEFKSAASHNIGSGKLGGNLDVKYKIPQYGITLTEKWNTENQLGTVIEVNEQFGRGLKVTLDSLYAPHAGKRSGKVKLDWALPTARVTADVGVTSAPVINAAGVFSRDGWLIGAAATFDSSSNKLAATSLAFGHSTPQYTLHSFVINSTDFGASLYHKVASNVEVGTQLGWKVGGNGADYALATKYAPSRDLTVRAKVNSSSQVAVAATHSLSPALKLTLSTQFNLAANDAHKFGLGLEFDPSN | not soluble |
| MAHHHHHHNQQNKKVEGGYECKYCTFQTPDLNMFTFHVDSEHPNVVLNSSYVCVECNFLTKRYDALSEHNLKYHPGEENFKLTMVKRNNQTIFEQTINDLTF | soluble |
| MAPLVAVVSSPRARLFACFLRLGTQQAGPLQLHTGACCTAKNHYEVLVLGGGAGGITMATRMKRRVGAENVAIVEPSERHFYQPIWTLVGAGAKELSLSVRSTLSVIPSGVQWIQDRVAELNPDENCIRTDSGKEISYRYLIIALGIQLDYEKIKGLPEGFAYPKIGSNYSVKTVEKTWKALQDFKEGNALFTFPNTPVKCAGAPQKIMYLSEAYFRKTGKRPKANIIFNTALGTIFGVKKYADALQEIIRERDVSVNYKHNLIEVRPDKQEAVFEILDKPGETHVIPYEMLHVTPPMSAPDVLKRSPVADSAGWVDVDKETLQHKKYPNVFGIGDCTNLPTSKTAAAVAAQSGILDRTMCLIMKNQRPIKKYDGYTSCPLVTGYNRVILAEFDYTAQPLETFPFDQSKERITMYLMKADMMPFLYWNMMLRGYWGGPAFLRKLFHLGMN | not soluble |
| MGSDKIHHHHHHMNNSLAFNHDTLPQKVMFGYGKSSAFLKQEVERRGSAKVMVIAGEREMSIAHKVASEIEVAIWHDEVVMHVPIEVAERARAVATDNEIDLLVCVGGGSTIGLAKAIAMTTALPIVAIPTTYAGSEATNVWGLTEAARKTTGVDLKVLPETVIYDSELTMSLPVEMSVASGLNGLAHCIDSLWGPNADPINAVLAAEGIRALNQGLPKIVANPHSIEGRDEALYGAYLAAVSFASAGSGLHHKICHTLGGTFNLPHAQTHATVLPYVLAFNAGDAPEAERRAAAAFGTDTALEGLQRLRLSVNAPKRLSDYGFEASGIAEAVDVTLEKVPANNPRPVTRENLSRLLEAALNGEDPAVLSAVLSN | not soluble |
| NYGMVPFAGIPYYACPFGRDSIITSWFLLPYYPQYAEGTLKFFAKIQGKKFNPLNEEEPGKIPHEFRFGELSHSRKMPFAPYYGTVDATPLYVILAAEYLRWTGDRELIERLKPNLTAAVEWILRRLDEGGGYIRYKGGLLANQGWKDSKEGIPTEEGTPTKPPVALVEVQGYAYKALMDAASLGLTSLDPKMLKKEAEELKKRFNKDFWCDGFYALALDGDNVPSKVVSSNMGHLLFTGIAEHQEKIAERLFEEDMFSGWGIRTLSSKEKAYNPFSYHNGSIWPHDNAVIAIGLASIGEKEKARMLAEAIFKTAKFLPNSQLPELFSGLESEYPLLCPRANAPQAWSAASVFALLTALLGLKA | not soluble |
| MGSDKIHHHHHHMANISTFEVGYCLHPGCMALRGAGWKVCRFPARVWMLESHGKRWLWDTGYAQHFTDATRSGLFQLYRRMTPVHFETKDALIHQLHAQGIQPADIDGLIISHFHGDHIAGLQDFPTVPFICSALGWQQTRNLRGFAALKRAFVPALIPEHFEQSLQFVENFPLTDLPAALAPFTQGYVLPGSDKEIVLVPLPGHAVGHLGAFVLTETGWVLLASDAAWSPHSYREGRGPSRLANLVMDDPKAYYQTLDQLHQLHLNGQVEIRLCHEGDL | not soluble |
| MSLAGKKIVLGVSGGIAAYKTPELVRRLRDRGADVRVAMTEAAKAFITPLSLQAVSGYPVSDSLLDPAAEAAMGHIELGKWADLVILAPATADLIARVAAGMANDLVSTICLATPAPVAVLPAMNQQMYRAAATQHNLEVLASRGLLIWGPDSGSQACGDIGPGRMLDPLTIVDMAVAHFSPVNDLKHLNIMITAGPTREPLDPVRYISNHSSGKMGFAIAAAAARRGANVTLVSGPVSLPTPPFVKRVDVMTALEMEAAVNASVQQQNIFIGCAAVADYRAATVAPEKIKKQATQGDELTIKMVKNPDIVAGVAALKDHRPYVVGFAAETNNVEEYARQKRIRKNLDLICANDVSQPTQGFNSDNNALHLFWQDGDKVLPLERKELLGQLLLDEIVTRYDEKNRR | soluble |
| PPIHPLTRAKLPDPYLMPVVSWNQSPQPPTTKEDALAKNPNREPIRCVDYHPFGVIGGRDILYGIVWGTRTA | not soluble |
| GPGSMFYKIVLQRTVNVKPADLCNTLNRSLLTFLREAVEGKPLPSPDSIASIALDYVTASKSSAVVIAVLDILNAETLQGKVLDDGSVSFRLTYEAMVLKLHRGEVLDLLVSDVDETGFWASVYGVNKLFVNRNQMGEDMKTGKSEWSFEAETAAWVSNDDRRSIKKDTMVRLRVIAETPQSERGMAVGTIGAPFLGPRVGSY | not soluble |
| MRVLVTGGAGFIGSHIVEDLLARGLEVAVLDNLATGKRENVPKGVPFFRVDLRDKEGVERAFREFRPTHVSHQAAQASVKVSVEDPVLDFEVNLLGGLNLLEACRQYGVEKLVFASTGGAIYGEVPEGERAEETWPPRPKSPYAASKAAFEHYLSVYGQSYGLKWVSLRYGNVYGPRQDPHGEAGVVAIFAERVLKGLPVTLYARKTPGDEGCVRDYVYVGDVAEAHALALFSLEGIYNVGTGEGHTTREVLMAVAEAAGKAPEVQPAPPRPGDLERSVLSPLKLMAHGWRPKVGFQEGIRLTVDHFRGAV | soluble |
| MDVADSTSETPPVFDHDNLALAAQTNLLQFYLTHLASTLVPPMKLDMRDSMTPSFSQTESPNSETDDSTSAANKVLFSILGTPTTDSTSNAVSKSSSKLCSVCGDKSTGLHYGAATCEGCKGFFKRSVQNKKVYHCSQDNCCEIDKQNRNRCQSCRFRKCISKGMLTEAVREDRMPGGRNGNSIYSNYKQRRSIIRKTKDYVEEQERRPFQSLPSGKKLIKELVEMDCLDRLINLKGLRINPSANCDIAPACKRLTRIGDEIVEQLVEWTKTLPFFDELPVEAHTHLLTQRWAELVLLSAGYYACSVFTPDSPDTTEMIDETDEISFTNPQVNLRLLQNRLSLVLGKEIPLEHVAKEAGPLVTRFTTLLHSFSNLKVSPEAYVCIKAITLLHLSADSTLDRSIIDKVNTLQDHFVKTLQIHLHQPGEDAQTTSLAQILDWLPDLRNASSVLLHSKMFYVPFLLCKNPRRLVFDE | not soluble |
